In patent US10689421B2, “Bacteriocin-producing Paenibacillus ehimensis and application thereof” (National Pingtung University of Science and Technology, priority 2018, dated 2020):

Assays:
E. coli [1] = test: Evaluation of antibacterial protein temperature tolerance; type: physicochemical; conditions: 30, 40, 50, 60, 70, 80, 90, 100 and 121° C. for 1 hour; control 4° C.
Procedure: Place 100 μl Peocin under 30° C., 40° C., 50° C., 60° C., 70° C., 80° C., 90° C., 100° C. and 121° C. respectively and stand for an hour, all treatment group except 121° C. group is put in the dry bath incubator, which can set to temperature 30° C.˜100° C. The 121° C. group is put in the sterilizer which can proceed wet heat sterilize at 121° C. Use Peocin stored under 4° C. as control group, and use the TSB agar plate containing E. coli to measure antibacterial activity and inhibitory zone diameter after an hour.

E. coli [2] = test: Antibacterial activity of Peocin expressed in E. coli BL21 (DE3)/pET-28-peocin; type: cell-based
Procedure: Add 30 μl E. coli BL21 (DE3)/pET-28-peocin bacterial liquid and 3 μl Kanamycin (100 mg/ml) to 3 ml LB culture broth and incubate for 24 hours. After incubation, add 0.5 ml medium and 50 μl Kanamycin (100 mg/ml) in 50 ml LB culture broth, incubate for 3 hours and add 50 μl 1M IPTG to induce expression of high-level production of protein. Incubate for 9 hours, measure the OD600 nm absorbance of bacterial broth, concentrate the bacterial liquid to OD600 nm=60/ml, wash with 1×PBS for once, place the bacterial broth in centrifuge and centrifuge it for 15 minutes with the speed of 1300 rpm. Remove the supernatant, add 2 ml 1×PBS and lyse by ultrasonic machine under 5 seconds on/5 seconds off cycle for 5 minutes, then again place the bacterial broth in centrifuge and centrifuge it for 20 minutes under 4° C. with the speed of 4000 rpm. Extract the supernatant and filter it using 0.45 μm syringe filter, then preserve the sample in 4° C. freezer to await for further steps. Load E. coli BL21 (DE3)/pET-28 and E. coli BL21 (DE3)/pET-28-peocin in the same SDS-PAGE to confirm that the transformed plasmid do express antibacterial protein in high-level production, then test antibacterial activity and measure inhibitory zone of E. coli BL21 (DE3)/pET-28 and E. coli BL21 (DE3)/pET-28-peocin protein sample on TSB medium containing E. coli to confirm the antibacterial ability of expressed protein.

proteinase K = proteinase K (Parengyodontium album, UniProt P06873); test: Sensitivity of antibacterial protein Peocin to protease; type: physicochemical; conditions: protease K 1 mg/ml, 4 hours, 37° C.
Chain of proteinase K (P06873 106-384): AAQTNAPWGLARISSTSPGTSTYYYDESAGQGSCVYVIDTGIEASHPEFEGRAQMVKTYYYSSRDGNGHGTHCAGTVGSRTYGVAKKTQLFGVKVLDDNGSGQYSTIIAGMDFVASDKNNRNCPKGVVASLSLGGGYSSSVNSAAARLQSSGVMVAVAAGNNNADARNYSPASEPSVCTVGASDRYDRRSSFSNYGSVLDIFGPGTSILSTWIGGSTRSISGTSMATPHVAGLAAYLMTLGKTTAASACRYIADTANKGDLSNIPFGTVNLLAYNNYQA
Procedure: (§1) Evaluate sensitivity of Peocin to proteinase K and trypsin respectively. First, add 180 μl of purified antibacterial protein peocin into 1.7 ml micro-centrifuge tube, then add 20 μl of 10 mg/ml proteinase K and trypsin respectively for the final concentration of protease to be 1 mg/ml, then stand for 4 hours under 37° C. for reaction. Next, use TSB agar plate containing E. coli to measure the antibacterial activity and inhibitory zone diameter. For comparison, use PBS buffer without antibacterial protein as buffer group, and control group is purified antibacterial protein peocin without protease.

trypsin = test: as above; type: physicochemical; conditions: trypsin 1 mg/ml, 4 hours, 37° C.
Procedure: as §1

E. coli [3] = test: Antibacterial activity of purified antibacterial protein (Resazurin reduction assay); type: cell-based; conditions: compared with the unpurified culture supernatant
Procedure: Antibacterial activity is evaluated by using Resazurin reduction assay. The Resazurin reduction assay is used to determine bacteria or cell activity, based on its reaction with mitochondria NADH dehydrogenase, which reduces the original dark blue Resazurin into pink Resorufin. Dilute the indicator bacterial strain E. coli cultured in advance to 1×10^7 CFU/ml and prepare 0.25 mg/ml Resazurin dye for following experiment. 96-well plate was divided into groups of three well as a triplication of one sample set; the total being 21 sets and every well was added with 60 μl TSB medium, 10 μl Resazurin dye, 10 μl indicator strain and 20 μl sample (total 100 μl). The aforementioned 20 μl sample is prepared by adding 0, 1, 2, . . . 20 μl of sample medium respectively, then use TSB medium to fill the total sample volume to 20 μl. Place the sample added 96-well plate in 37° C. incubation box for 12 hours and observe the results. Antibacterial unit (AU) is determined by Resazurin assay, whereas the minimum amount of sample medium required to inhibit color change is 1AU. The antibacterial activity of sampled culture in each time point is represented by how many AU there is in 1 ml of medium.
Take 500 μl liquid bacteria from −80° C. preserved NPUST-1 strain, add it to 50 ml TSB broth culture and culture it for 24 hours under 28° C. for activation. […]

E. coli [4] = test: Antibacterial protein stability under different preservation temperature for 70 days; type: physicochemical
Procedure: Place purified antibacterial protein Peocin sample in 40° C., room temperature, 4° C. and −20° C. environment respectively for 70 days. Each week during the experiment, extract samples and measure their antibacterial activity and inhibitory zone diameter using TSB agar plate containing E. coli.

E. coli [5] = test: Evaluation of antibacterial protein pH tolerance; type: physicochemical; conditions: 28° C.
Procedure: Add the purified antibacterial substance in PBS buffer pH7.4 as control group. The experimental groups comprise pH 2, pH3, pH 4, pH 5, pH 6, pH 7, pH 8, pH 9 and pH 10 group, the buffer used for different pH treatment are Glycine-HCl buffer (pH 2.0), Citrate-phosphate Mcllvaine buffer (pH 3.0, 4.0, 5.0 and 6.0), Sodium-phosphate buffer (pH 7.0), Tris(hydroxymethyl) aminomethane buffer (pH 8.0 and 9.0) and Glycine-NaOH buffer (pH 10.0). First, add 500 μl of purified antibacterial protein in 15 ml centrifuge individually for each group, then add 2 ml of different pH buffer to change pH environment of treated antibacterial substance and stand for 4 hours under 28° C. After 4 hours, measure the antibacterial activity and inhibitory zone diameter using TSB agar plate containing E. coli.

B1: Peocin: bacteriocin; DNA starvation/stationary phase protection protein produced by Paenibacillus ehimensis NPUST-1, amino acid SEQ ID NO: 1 (protein, listed as Paenibacillus ehimensis)
chain: MNEQLTVLLNNQIANWSVLYVKLHNYHWYVKGPQFFTLHTKFEELYTEAALHVDALAERLLALGGKPVATMSGSLRLASVREAEGEESAERMVAALVNDFTLIIGELKSGMKYAESVQDETTGDLLLAIHSSLEKHVWMLNAFLGN
- antibacterial activity after temperature treatment (E. coli [1]): maintain original antibacterial activity
- antibacterial activity when expressed in E. coli (E. coli [2]; inside E. coli BL21 (DE3)/pET-28-peocin after induction): no antibacterial activity
- antibacterial activity of recombinant protein released outside of E. coli (E. coli [2]; supernatant of lysed E. coli BL21 (DE3)/pET-28-peocin, TSB medium containing E. coli): antibacterial effect
- antibacterial activity after protease treatment (proteinase K): stable antibacterial activity
- antibacterial activity after protease treatment (trypsin): stable antibacterial activity
- antibacterial activity after preliminary purification (E. coli [3]): significantly higher
- antibacterial activity remained after preservation (E. coli [4]; 4° C.): 90%
- antibacterial activity remained after preservation (E. coli [4]; 40° C.): 66%
- antibacterial activity remained after preservation (E. coli [4]; room temperature): 80%
- antibacterial activity remained after preservation (E. coli [4]; −20° C.): 90%
- antibacterial activity remained (E. coli [5]; pH2 for 4 hours): 87%
- antibacterial activity after pH treatment (E. coli [5]; pH 3~10 for 4 hours): remain stable
